Consider 36 sequences from the supplement of paper PMC10567573.

± gives the standard deviation.

The nature of the series: protein stability index of a GFP-peptide fusion (GPS, HEK-293T) (PSI 1-6); higher = more stable. The settings on record: c terminus: a fixed tail appended.
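Note: 24-mer peptide tiles fused after GFP, lentivirally expressed, FACS-sorted into six equal bins by GFP/DsRed ratio, decoded by Illumina sequencing, PSI is the read-weighted mean bin number.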

Regarding ANNDHTVLSLACAGGHLAVVELLL [ANKRD17], the protein stability index by setting is: (treatment: DMSO) 2.41 ± 0.25; (treatment: MLN4924 1 uM, 8 h) 2.42 ± 0.24.
For ANRPDPNTPMEETVRAMTHVINQG [KCNAB2], in that order: 4.75 ± 0.13 and 4.78 ± 0.12.
In the same order, the values of APGSSVEYQCQNLYQLEGNNQITC [CFHR2] are 3.88 ± 0.12 and 3.88 ± 0.17.
For APKKELINIKGISEAKADKILAEA [RAD51], in that order: 4.05 ± 0.25 and 4.49 ± 0.46.
Consider APRGTPDPGLGEGPALWLRSTCVY [PLEKHN1], for which the protein stability index was 2.43 ± 0.24 (treatment: DMSO) and 2.34 ± 0.27 (treatment: MLN4924 1 uM, 8 h).
Take APVLVAAPHSTFFDPIVLLPCDLP [LPCAT4]: the protein stability index by setting is: (treatment: DMSO) 2.25 ± 0.27; (treatment: MLN4924 1 uM, 8 h) 2.47 ± 0.32.
Take ARAEQEEEFISNTLFKKIQALQKE [CCDC6]: the protein stability index runs as follows: (treatment: DMSO) 3.48 ± 0.41; (treatment: MLN4924 1 uM, 8 h) 3.77 ± 0.34.
On to ARASEGSDSGSDKSLEGGGTAFDA [SMG5], for which the protein stability index (treatment: DMSO) turned out to be 5.48 ± 0.3 and the protein stability index (treatment: MLN4924 1 uM, 8 h) was 5.37 ± 0.45.
For ARCTAGTLHNLSHHREGLLAIFKS [CTNNB1], in that order: 2.48 ± 0.19 and 2.45 ± 0.19.
On to ARLMRSNYPPPLSSAALRGAGPTR [C6orf223], for which the protein stability index stood at 3.79 ± 0.2 (treatment: DMSO) and 3.96 ± 0.14 (treatment: MLN4924 1 uM, 8 h).
ARVLDRRGCSRVEGGGTSLHVACE [ANKRD9] registered a protein stability index (treatment: DMSO) of 3.57 ± 0.27 and a protein stability index (treatment: MLN4924 1 uM, 8 h) of 3.47 ± 0.46.
For ASFDVCESVDEAGGSGPAGLRAST [RHOBTB2], in that order: 5.24 ± 0.21 and 5.02 ± 0.15.
Regarding ASKSKGAAVKLADFGLAIEVQGDQ [CAMK2D], the protein stability index is, setting by setting: (treatment: DMSO) 4.13 ± 0.37; (treatment: MLN4924 1 uM, 8 h) 4.37 ± 0.3.
Take ASRLLTTALTSFCAKYTYPVCSAL [FANCE]: the protein stability index reads like this: (treatment: DMSO) 3.29 ± 0.58; (treatment: MLN4924 1 uM, 8 h) 3.34 ± 0.49.
AVGGRNAAGELPTVECYNPRTNEW [KLHL13] gave a protein stability index (treatment: DMSO) of 4.2 ± 0.13 and a protein stability index (treatment: MLN4924 1 uM, 8 h) of 4.33 ± 0.13.
For AVLGRYVPGLLLSYLMLVTVMMWP [RETREG3], in that order: 3.41 ± 0.13 and 3.1 ± 0.47.
For AWGPGTLAAAPEGLEDAGLDPHFV [TEX19], in that order: 4.31 ± 0.25 and 4.37 ± 0.26.
With AYDLSSVIASGSSVGHNNLIPLAN [CARM1], the protein stability index stood at 3.23 ± 0.4 (treatment: DMSO) and 3.09 ± 0.28 (treatment: MLN4924 1 uM, 8 h).
Take AYEYEREGLYEQAFQLLRRFVQAE [TRADD]: the protein stability index reads like this: (treatment: DMSO) 2.27 ± 0.31; (treatment: MLN4924 1 uM, 8 h) 2.48 ± 0.26.
On to CCSRYLCMGAMSLFLPCLLCYPPA [SPRY1], for which the protein stability index reads like this: (treatment: DMSO) 2.82 ± 0.47; (treatment: MLN4924 1 uM, 8 h) 2.58 ± 0.63.
For CDEARNHYGGVVSLIPLILDLMKE [SPACA9], in that order: 2.3 ± 0.29 and 2.36 ± 0.23.
In the same order, the values of CGPQWEMSEWSECTAKCGERSVVT [ADAMTSL2] are 2.92 ± 0.42 and 3 ± 0.52.
As for CISDELLENLCENASTLRTINIKC [FBXO39], the protein stability index runs as follows: (treatment: DMSO) 2.47 ± 0.2; (treatment: MLN4924 1 uM, 8 h) 2.69 ± 0.28.
Take CLGLSYDGLLGDNQIMPKTGFLII [MAGEA6]: the protein stability index by setting is: (treatment: DMSO) 3.01 ± 0.6; (treatment: MLN4924 1 uM, 8 h) 2.49 ± 0.44.
For CLHHICTNYNNVCRKFPRDMKAMS [RHOBTB2], in that order: 2.26 ± 0.18 and 2.42 ± 0.067.
For CLLVLRLFLGIHVFLVSCALPDSV [AUP1], the protein stability index reads like this: (treatment: DMSO) 3.22 ± 0.2; (treatment: MLN4924 1 uM, 8 h) 3.09 ± 0.05.
For the sequence CLSRHSINPYSNRESRILFSTWNL [DFFB], the protein stability index (treatment: DMSO) came out at 2.28 ± 0.27 and the protein stability index (treatment: MLN4924 1 uM, 8 h) is 2.15 ± 0.3.
For CNDLFKVNPFQLQQFRADPSTASL [TIAF1], the protein stability index by setting is: (treatment: DMSO) 2.71 ± 0.063; (treatment: MLN4924 1 uM, 8 h) 2.78 ± 0.18.
In the same order, the values of CQTGGVEDQEEWHAQVVEELSNFK [ZBED1] are 5.73 ± 0.26 and 5.6 ± 0.16.
For CRETGSFLDLFRYRVLLGHTLILM [SLC22A15], in that order: 2.97 ± 0.59 and 2.45 ± 0.38.
For CRLKRCVDIGMMKEFILTDEEVQR [VDR], the protein stability index reads like this: (treatment: DMSO) 2.49 ± 0.28; (treatment: MLN4924 1 uM, 8 h) 2.53 ± 0.13.
For CRRSVRLALGRERLGEIHTLPLPA [SPSB1], in that order: 3 ± 0.17 and 2.98 ± 0.11.
For CTAGNFMECQPESSISHRFHKDCA [EHMT1], in that order: 2.96 ± 0.25 and 3.03 ± 0.27.
For DAHLVLDGEEIPVQKNILAAASPY [GAN], in that order: 4.18 ± 0.12 and 4.16 ± 0.3.
As for DALISVSYTIITPLFNPMIYSLRN [OR10K2], the protein stability index stood at 4.18 ± 0.26 (treatment: DMSO) and 3.35 ± 0.75 (treatment: MLN4924 1 uM, 8 h).
For DAPPVELQLLHECSPSQMDLLCAQ [FANCE], in that order: 4.31 ± 0.054 and 4.63 ± 0.25.
